Source: patent publication US20080009025A1, “PROTEIN KINASE REGULATION” (priority 1999, published 2008)
Where a chain is given by its changes, count along the chain named.

Assays:
PDK1-L155E = biological target: T1, PDK1-L155E (Homo sapiens, UniProt O15530, L155E); assay: Phosphorylation of AGC kinase substrates by PDK1 (32P, PhosphoImager); assay type: biochemical; conditions: PKB[S473D] rate by PDK1-wt = 100; for Relative phosphorylation of PDK1 substrates PDK1-L155E +PIFtide: with PIFtide; for Relative phosphorylation of PDK1 substrates PDK1-L155E —: without PIFtide
T1 construct: made in house; host or cells: human embryonic kidney 293 cells
T1 sequence (O15530 1-556 L155E): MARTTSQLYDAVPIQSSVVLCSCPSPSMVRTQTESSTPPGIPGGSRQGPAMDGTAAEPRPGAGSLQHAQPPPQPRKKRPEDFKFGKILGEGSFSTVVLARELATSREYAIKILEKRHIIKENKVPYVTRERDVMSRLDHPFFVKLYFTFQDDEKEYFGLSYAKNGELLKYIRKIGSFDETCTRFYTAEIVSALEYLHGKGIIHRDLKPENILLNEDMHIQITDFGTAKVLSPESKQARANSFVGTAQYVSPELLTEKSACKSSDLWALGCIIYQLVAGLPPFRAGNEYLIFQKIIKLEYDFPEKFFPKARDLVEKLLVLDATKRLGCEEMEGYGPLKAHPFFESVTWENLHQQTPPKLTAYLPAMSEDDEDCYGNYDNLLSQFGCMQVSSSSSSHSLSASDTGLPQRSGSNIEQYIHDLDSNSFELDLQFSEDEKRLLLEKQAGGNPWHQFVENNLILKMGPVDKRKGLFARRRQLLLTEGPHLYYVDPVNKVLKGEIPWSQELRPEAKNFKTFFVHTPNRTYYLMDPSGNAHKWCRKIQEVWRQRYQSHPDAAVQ
Method: (§1) Phosphorylation of AGC kinase substrates by PDK1. The phosphorylation of PDK1 substrates was performed in a final volume of 20 μl in a buffer containing 50 mM Tris-HCl pH 7.5, 0.1% (by vol) 2-mercaptoethanol, 10 mM magnesium chloride, 100 μM [γ-^32P]ATP (˜1000 c.p.m./pmol), 0.5 μM microcystin-LR, 0.6 μM AGC kinase substrate and 0.6 to 30 nM wild type PDK1 or the indicated mutant of PDK1.
(§2) Relative phosphorylation of PDK1 substrates. PDK1 substrates were phosphorylated in vitro, subjected to SDS-PAGE, and radioactivity associated with the bands measured using a Phospho-Imager and known amounts of ATP as standard. The phosphorylation rate of PKB[S473D] in the presence of PtdIns (3,4,5)P3 was 2.6 mol/mol PDK1/min and was taken as the relative value of 100. Average values from a representative experiment performed in duplicates are shown.

PDK1-wt = biological target: T2, PDK1-wt (Homo sapiens, UniProt O15530); assay: as above; assay type: biochemical; conditions: for Relative phosphorylation of PDK1 substrates PDK1-wt +PIFtide: with PIFtide; for Relative phosphorylation of PDK1 substrates PDK1-wt +PIFtide / Relative phosphorylation of PDK1 substrates PDK1-wt —: PKB[S473D] rate with PtdIns(3,4,5)P3 = 100; for Relative phosphorylation of PDK1 substrates PDK1-wt —: without PIFtide
T2 construct: made in house; host or cells: human embryonic kidney 293 cells
T2 sequence (O15530 1-556): T1 sequence (O15530 1-556 L155E) with E155L
Method: as §1, §2

PDK1 [1] = biological target: T3, PDK1 (Homo sapiens, UniProt O15530); assay: Phosphorylation of GST-p70 S6K-T2 by PDK1 in vitro (32P autoradiography); assay type: biochemical; design: made in house; host or cells: 293 cells or E. coli; conditions: GST fusion 1.5 μM; GST-PDK1 50 nM
T3 sequence (O15530 1-556): T1 sequence (O15530 1-556 L155E) with E155L
Method: FIG. 1. PIF prevents PDK1 from phosphorylating p70 S6K in vitro. GST-p70 S6K lacking the C-terminal 104 amino acids (GST-p70 S6KT2) (1 μg) was incubated for 30 min at 30° C. with Mg [γ^32P] ATP and GST-PDK1 (50 nM) in the presence or absence of either wild type (wt) GST-PIF or D978A GST-PIF (1.5 μM), or the indicated PIF peptides (4 μM) in a final volume of 20 μl. The reactions were terminated by making the solutions 1% in SDS, the samples subjected to SDS-polyacylamide gel electrophoresis, and the phosphorylation assessed by autoradiography of the gel. The position in the gel where GST-p70 S6KT2 (73 kDa) migrates is indicated with an arrow. The only other ^32P-labelled protein on the gel which is not shown, corresponded to autophosphorylation of PDK1 and contained ˜10 fold lower levels of ^32P-radioactivity than that of the GST-p70 S6T2 phosphorylated by PDK1 in the absence of PIF. A high amount of PDK1 is used in this experiment to achieve a near maximal phosphorylation of GST-p70 S6T2. If the reactions were carried out at a 10-fold lower concentration of PDK1 under conditions where the phosphorylation of GST-p70 S6T2 by PDK1 is linear with time and the amount of substrate used, then PIF still prevented the phosphorylation of GST-p70 S6T2 (data not shown). wt indicates wild type and PSer indicates phospho-serine. The results of a duplicate experiment for each condition are shown, and similar findings were obtained in five separate experiments.
Preparation of insect cell His-p70 S6K. p70 S6K with a His-epitope tag at its N-terminus lacking the carboxy terminal 104 residues is termed p70 S6K-T2. In order to prepare wild type and the mutant 412E-p70 S6K-T2 the cDNA for these constructs was amplified by PCR from the pMT2 vector encoding these forms of p70 S6K [6] using the following oligonucleotides: 5′-AGGATCCACCATGCACCATCACCATCACCATATGAGGCGAGCAAGGAGGCGG-3′ and 5′-GCGGCCGCTCAACTTTCAAGTACAGATGGAGCC-3′. The PCR products were then subcloned into the BamH1/Not1 sites of the pFASTBAC 1 vector and this vector was used to generate recombinant baculovirus using the Bac-to-Bac system (Life Technologies Inc). The resulting viruses, encoded p70 S6K-T2 or 412E-p70 S6K-T2 with an N-terminal hexahistidine sequence, and was used to infect Sf21 cells (1.5×10^6/m) at a multiplicity of infection of 5. The infected cells were harvested 72 h post-infection and the His-p70 S6K proteins purified by Ni^2+/NTA (nitrilotriacetic acid)-agarose chromatography as described previously for PKBβ [25]. […]

PDK1 [2] = conditions: ref [22]; cited from earlier work
p70 S6K = assay: IGF1-induced activation and Thr412 phosphorylation of HA-p70 S6K in co-transfected 293 cells; assay type: cell-based, human; conditions: 293 cells
Method: FIG. 3. PIF inhibits p70 S6K activation and phosphorylation at Thr252 and Thr412. 293 cells were co-transfected with constructs expressing the wild type (wt) full length HA-p70 S6K (A) or the full length HA-T412E p70 S6K (B) with either GST-PIF, GST-F977A-PIF, or GST. 24 h post transfection the cells were serum starved for 16 h and them stimulated for 40 min with 100 nM IGF 1. The cells were lysed and HA-p70 S6K was immunoprecipitated and assayed as described in methods. Protein from each lysate (10 μg for the HA blots or 20 μg for the T412-P blot) was electrophoresed on a 10% SDS/polyacrylamide gel and immunoblotted using HA-antibody or the T412-P antibody. The T412-P antibody was incubated with either the synthetic peptide (10 μg/ml) corresponding to residues 401 to 418 of p70 S6K phosphorylated at Thr412 (phosph-412E peptide), or the unphosphorylated peptide (de-phospho-Thr412 peptide). The T412-P antibody consistently recognises a protein termed “non specific band” in cell lysates which migrate at (75 kDa) derived from non transfected and transfected cells. […] It is not co-immunoprecipitated with HA-p70 S6K (date not shown). The HA-p70 S6K activities shown are the average ±SEM for a single experiment carried out in triplicate. Similar results were obtained in 8 separate experiments (A) and 2 experiments (B). The immunoblotting was carried out in 3 separate experiments with similar results.
Transient Transfection Experiments. The DNA constructs encoding for the wild type and mutant forms of HA-p70 S6K in the pMT2 vector used in this study have been described previously. […] The constructs used to express GST-PIF and the mutant GST-F977A-PIF [22] are in the pEBG2T vector. The empty pEBG2T vector was used to express GST protein in control experiments. DNA constructs used in this study were purified from bacteria using the Qiagen plasmid Mega kit according to the manufacturer's protocol.
293 cells cultured on 10 cm diameter dishes in Dulbecco's Modified Eagle's Medium containing 10% (by vol) foetal bovine serum, were transfected with 2 μg of DNA construct encoding either wild type or mutant HA-p70 S6K or HA-PKBα, and 10 μg of DNA construct encoding either GST-PIF, GST-F977A-PIF, GST, Myc-PDK1, kinase-dead Myc-PDK1, or the empty pCMV5 vector using a modified calcium phosphate method. 24 h post transfection the cells were deprived of serum for 16 h, and exposed to IGF1 (100 nM) for the time indicated. The cells were lysed in 1 ml of lysis buffer (50 mM Tris/HCl pH 7.5, 1 mM EDTA, 1 mM EGTA, 1% (by vol) Triton X-100, 1 mM sodium orthovanadate, 10 mM sodium β-glycerophosphate, 50 mM NaF, 5 mM sodium pyrophosphate, 1 μM microcystin-LR, 0.27 M sucrose and protease cocktail tablets), cleared by centrifugation, and 50 μg of protein was subjected to immunoprecipitation with anti HA monoclonal antibody. The protein concentrations of the lysates were determined by the Bradford method.
Kinase assays. The HA-p70 S6K or HA-PKBα immunoprecipitates were washed and assayed for kinase activity using the peptide Crosstide (GRPRTSSFAEG) as described previously for PKBα [28]. One unit of activity, U, was that amount which catalysed the phosphorylation of 1 nmol of substrate in one minute.
Immunoblotting for dephosphorylated and Thr412-phosphorylated p70 S6 kinase. Cell lysates were made 1% SDS and the indicated amounts of protein were subjected to SDS/Polyacrylamide gel electrophoresis, subsequently transferred to nitrocellulose and immunoblotted using the indicated monoclonal antibody or the T412-P phospho-specific antibody (0.4 μg/ml) in 50 mM Tris/HCl pH7.5, 0.15M NaCl, 0.5% (by vol) Tween and 10% (by mass) skimmed milk. Detection was performed using the enhanced chemiluminescence reagent (Amersham Pharmacia Biotech).

Row | Relative phosphorylation of PDK1 substrates PDK1-L155E +PIFtide (PDK1-L155E) | Relative phosphorylation of PDK1 substrates PDK1-L155E — (PDK1-L155E) | phosphorylation rate (PDK1-wt; in the presence of PtdIns (3,4,5)P3) | Relative phosphorylation of PDK1 substrates PDK1-wt +PIFtide (PDK1-wt) | Relative phosphorylation of PDK1 substrates PDK1-wt — (PDK1-wt) | effect on phosphorylation of GST-p70 S6K-T2 by PDK1 (PDK1 [1]) | Substance | affinity for PDK1 compared with wild type PIF (PDK1 [2]) | HA-p70 S6K activity after IGF1 stimulation (p70 S6K; 100 nM IGF1 40 min) | IGF1-induced phosphorylation of HA-p70 S6K at Thr412 (p70 S6K; T412-P antibody)
1 | 162 | 178 | 2.6 mol/mol PDK1/min | 85.4 | 100 |  | FL-PKB 473D: full length PKBα with Ser473 mutated to Asp |  |  | 
2 | 35 | 35 |  | 19.3 | 28 |  | FL-PKB: full length GST-tagged PKBα |  |  | 
3 |  |  |  |  |  | poorly inhibited | GST-D978A-PIF: mutant GST-PIF in which the amino acid equivalent to Asp978 in PRK2 is mutated to Ala | markedly reduced affinity |  | 
4 |  |  |  |  |  |  | GST-F977A-PIF: mutant form of GST-PIF which interacts with PDK1 weakly |  | substantially activated | still occurred but a lower level
